# T1: CDH17 on tumor cells (DLD-1, AGS, AsPC1, CDH17-positive pancreatic and colon lines, SW40 with ectopic CDH17) (UniProt Q12864 23-832, limits assumed)
# T1 sequence (looked up): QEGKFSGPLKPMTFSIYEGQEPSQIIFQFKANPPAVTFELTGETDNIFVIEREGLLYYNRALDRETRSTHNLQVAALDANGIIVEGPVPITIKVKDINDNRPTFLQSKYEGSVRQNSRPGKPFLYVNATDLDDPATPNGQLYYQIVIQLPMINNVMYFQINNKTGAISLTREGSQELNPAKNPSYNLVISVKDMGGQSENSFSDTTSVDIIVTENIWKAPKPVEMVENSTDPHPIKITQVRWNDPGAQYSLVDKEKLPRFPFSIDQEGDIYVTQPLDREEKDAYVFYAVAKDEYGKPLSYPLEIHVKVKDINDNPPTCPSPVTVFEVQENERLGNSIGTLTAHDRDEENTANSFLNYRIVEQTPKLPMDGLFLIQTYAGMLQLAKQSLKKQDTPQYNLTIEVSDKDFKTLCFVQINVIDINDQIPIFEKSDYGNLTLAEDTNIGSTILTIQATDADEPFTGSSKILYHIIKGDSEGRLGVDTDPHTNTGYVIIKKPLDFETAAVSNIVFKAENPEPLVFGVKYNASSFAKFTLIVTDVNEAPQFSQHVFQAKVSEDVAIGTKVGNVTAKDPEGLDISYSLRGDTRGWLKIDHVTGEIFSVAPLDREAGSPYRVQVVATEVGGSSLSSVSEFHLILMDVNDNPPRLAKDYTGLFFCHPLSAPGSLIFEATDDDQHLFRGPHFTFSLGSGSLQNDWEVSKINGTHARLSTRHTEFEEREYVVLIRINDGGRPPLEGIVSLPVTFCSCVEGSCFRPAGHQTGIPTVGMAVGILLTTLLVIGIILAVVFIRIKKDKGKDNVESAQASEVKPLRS
# Assays:
# CD3 on Jurkat T cells = CD3 on Jurkat T cells (UniProt P07766 23-207); experiment: cell-based or functional assay
# Chain of CD3 on Jurkat T cells (P07766 23-207): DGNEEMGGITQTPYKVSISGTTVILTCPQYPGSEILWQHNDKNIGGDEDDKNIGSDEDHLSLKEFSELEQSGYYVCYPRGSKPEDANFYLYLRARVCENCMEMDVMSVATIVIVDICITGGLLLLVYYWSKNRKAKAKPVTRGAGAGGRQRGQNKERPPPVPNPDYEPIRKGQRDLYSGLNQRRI
# [1] = target: T1, CDH17 on tumor cells (DLD-1, AGS, …); experiment: cell-based or functional assay
binder,measurement,setting,value
"h10G4fL (h10G4U1fL; ARB202), CDH17xCD3 bispecific antibody of the IgG-scFv / fL design, IgG4 (bispecific antibody) heavy: EVQLVESGGGLVQPGGSLRLSCAASGFTFSSYAMSWVRQTPGKGLEWVAVIDSNGGSTYYPDTVKDRFTISRDNSKNTLYLQMNSLRAEDTAVYYCSSYTNLGAYWGQGTLVTVSSASTKGPSVFPLAPSSKSTSGGTAALGCLVKDYFPEPVTVSWNSGALTSGVHTFPAVLQSSGLYSLSSVVTVPSSSLGTQTYICNVNHKPSNTKVDKRVEPKSCDKTHTCPPCPAPELLGGPSVFLFPPKPKDTLMISRTPEVTCVVVDVSQEDPEVQFNWYVDGVEVHNAKTKPREEQFNSTYRVVSVLTVLHQDWLNGKEYKCKVSNKGLPSSIEKTISKAKGQPREPQVYTLPPSQEEMTKNQVSLTCLVKGFYPSDIAVEWESNGQPENNYKTTPPVLDSDGSFFLYSRLTVDKSRWQEGNVFSCSVMHEALHNHYTQKSLSLSLGKPAGGGGSEVQLVESGGGLVQPGGSLRLSCAASGYSFTGYTMNWVRQAPGKGLEWVALINPYKGVSTYNQKFKDRFTISVDKSKNTAYLQMNSLRAEDTAVYYCARSGYYGDSDWYFDVWGQGTLVTVSSGGGGSGGGGSGGGGSDIQMTQSPSSLSASVGDRVTITCRASQDIRNYLNWYQQKPGKAPKLLIYYTSRLESGVPSRFSGSGSGTDYTLTISSLQPEDFATYYCQQGNTLPWTFGQGTKVEIK light: DIQMTQSPSSLSASVGDRVTITCRASQDISGYLNWLQQKPGGAIKRLIYTTSTLDSGVPKRFSGSGSGTDFTLTISSLQSEDFATYYCLQYASSPFTFGGGTKVEIKRTVAAPSVFIFPPSDEQLKSGTASVVCLLNNFYPREAKVQWKVDNALQSGNSQESVTEQDSKDSTYSLSSTLTLSKADYEKHKVYACEVTHQGLSSPVTKSFNRGEC",EC50 of IL2 production by PBMC in the absence of AsPC1 tumor cells,CD3 on Jurkat T cells,≥ 18.7 nM
same,"EC50 of IL2 production by PBMC in the presence of AsPC1 tumor cells (5:1, 16 hours)",[1],0.03 nM
